Reference: paper PMC7611867
Read-outs that look alike come from different tables or passages of the source.

Key:
Spo11;Rec102;Rec104;Ski8 [1] = target: T1, Spo11;Rec102;Rec104;Ski8 (Saccharomyces cerevisiae;Saccharomyces …, UniProt P23179;Q02721;P33323;Q02793 1-398;1-264;1-182;1-397, |||); assay: EMSA
Spo11;Rec102;Rec104;Ski8 [2] = target: T1, Spo11;Rec102;Rec104;Ski8; assay: EMSA; remark: listed apart in the source

T1 sequence (P23179 whole entry, chain 1 of 4): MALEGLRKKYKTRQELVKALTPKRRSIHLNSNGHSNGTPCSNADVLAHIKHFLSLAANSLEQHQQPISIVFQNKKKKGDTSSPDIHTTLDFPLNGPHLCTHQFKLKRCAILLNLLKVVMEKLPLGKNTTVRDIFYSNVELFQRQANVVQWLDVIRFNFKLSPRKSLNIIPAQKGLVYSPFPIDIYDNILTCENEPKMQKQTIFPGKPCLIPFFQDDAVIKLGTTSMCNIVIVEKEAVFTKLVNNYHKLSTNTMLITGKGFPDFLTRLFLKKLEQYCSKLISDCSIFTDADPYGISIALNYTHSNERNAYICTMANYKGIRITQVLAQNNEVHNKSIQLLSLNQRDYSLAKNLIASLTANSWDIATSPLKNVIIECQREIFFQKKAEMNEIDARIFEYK
T1 sequence (Q02721 whole entry, chain 2 of 4): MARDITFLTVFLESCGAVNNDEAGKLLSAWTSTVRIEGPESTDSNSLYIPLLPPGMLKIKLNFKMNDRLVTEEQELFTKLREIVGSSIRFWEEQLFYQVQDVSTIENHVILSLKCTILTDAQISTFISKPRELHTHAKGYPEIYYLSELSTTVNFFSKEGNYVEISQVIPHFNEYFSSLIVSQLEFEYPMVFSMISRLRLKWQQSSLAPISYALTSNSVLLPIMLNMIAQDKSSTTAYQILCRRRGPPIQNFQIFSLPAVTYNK
T1 sequence (P33323 whole entry, chain 3 of 4): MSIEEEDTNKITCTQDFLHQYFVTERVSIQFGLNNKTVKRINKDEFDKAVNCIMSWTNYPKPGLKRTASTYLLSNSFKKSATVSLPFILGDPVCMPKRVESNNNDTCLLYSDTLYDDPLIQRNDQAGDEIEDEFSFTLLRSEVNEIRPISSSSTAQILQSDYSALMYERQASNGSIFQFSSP
T1 sequence (Q02793 whole entry, chain 4 of 4): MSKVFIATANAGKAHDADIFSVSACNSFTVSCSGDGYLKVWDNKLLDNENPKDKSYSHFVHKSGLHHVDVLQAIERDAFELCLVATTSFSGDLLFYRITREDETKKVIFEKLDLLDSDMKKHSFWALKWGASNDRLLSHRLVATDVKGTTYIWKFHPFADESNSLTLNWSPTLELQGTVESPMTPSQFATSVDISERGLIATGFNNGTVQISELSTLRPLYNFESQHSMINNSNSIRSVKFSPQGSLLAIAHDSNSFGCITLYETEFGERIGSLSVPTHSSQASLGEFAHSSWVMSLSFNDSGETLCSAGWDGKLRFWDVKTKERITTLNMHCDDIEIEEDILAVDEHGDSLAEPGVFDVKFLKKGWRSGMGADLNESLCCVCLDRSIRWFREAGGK

| Binder | binding result (Spo11;Rec102;Rec104;Ski8 [1]) | binding result (Spo11;Rec102;Rec104;Ski8 [2]) |
| --- | --- | --- |
| 31 bp (dsDNA) DNA 1: TAGCAATGTAATCGTCTATGACGTGTAGCGC DNA 2: TAGCGCTACACGTCATAGACGATTACATTGC | binds |  |
| 25 bp (dsDNA) DNA 1: TAGCAATGTAATCGTCTATGACGTT DNA 2: TAAACGTCATAGACGATTACATTGC | binds |  |
| 24 bp (dsDNA) DNA 1: TAGCAATGTAATCGTCTATGACGT DNA 2: TAACGTCATAGACGATTACATTGC | binds |  |
| 32 bp (dsDNA) DNA 1: TAGCAATGTAATCGTCTATGACGTGATAGCGC DNA 2: TAGCGCTATCACGTCATAGACGATTACATTGC | binds |  |
| 34 bp (dsDNA) DNA 1: TAGCAATGTAATCGTCTATGACGTGTCATAGCGC DNA 2: TAGCGCTATGACACGTCATAGACGATTACATTGC |  | binds |
| 33 bp (dsDNA) DNA 1: TAGCAATGTAATCGTCTATGACGTGCATAGCGC DNA 2: TAGCGCTATGCACGTCATAGACGATTACATTGC | binds |  |
| 30 bp (dsDNA) DNA 1: TAGCAATGTAATCGTCTATGACGTTAGCGC DNA 2: TAGCGCTAACGTCATAGACGATTACATTGC | binds |  |
